Literature values as cited in article PMC6143783.

Tests used:
[1] = target: GABAA receptor α1 TM3-TM4 loop (Homo sapiens) (UniProt P14867); assay: ITC
[2] = target: GABAA receptor α3 TM3-TM4 loop (Homo sapiens) (UniProt P34903); assay: ITC
GABAA receptor α3 TM3-TM4 loop (Homo sapiens), sequence (P34903 359-457): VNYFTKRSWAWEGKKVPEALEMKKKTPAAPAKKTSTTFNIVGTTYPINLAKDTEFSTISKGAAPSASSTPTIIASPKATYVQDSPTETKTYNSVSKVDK

gephyrin, sequence (Q03555 whole entry): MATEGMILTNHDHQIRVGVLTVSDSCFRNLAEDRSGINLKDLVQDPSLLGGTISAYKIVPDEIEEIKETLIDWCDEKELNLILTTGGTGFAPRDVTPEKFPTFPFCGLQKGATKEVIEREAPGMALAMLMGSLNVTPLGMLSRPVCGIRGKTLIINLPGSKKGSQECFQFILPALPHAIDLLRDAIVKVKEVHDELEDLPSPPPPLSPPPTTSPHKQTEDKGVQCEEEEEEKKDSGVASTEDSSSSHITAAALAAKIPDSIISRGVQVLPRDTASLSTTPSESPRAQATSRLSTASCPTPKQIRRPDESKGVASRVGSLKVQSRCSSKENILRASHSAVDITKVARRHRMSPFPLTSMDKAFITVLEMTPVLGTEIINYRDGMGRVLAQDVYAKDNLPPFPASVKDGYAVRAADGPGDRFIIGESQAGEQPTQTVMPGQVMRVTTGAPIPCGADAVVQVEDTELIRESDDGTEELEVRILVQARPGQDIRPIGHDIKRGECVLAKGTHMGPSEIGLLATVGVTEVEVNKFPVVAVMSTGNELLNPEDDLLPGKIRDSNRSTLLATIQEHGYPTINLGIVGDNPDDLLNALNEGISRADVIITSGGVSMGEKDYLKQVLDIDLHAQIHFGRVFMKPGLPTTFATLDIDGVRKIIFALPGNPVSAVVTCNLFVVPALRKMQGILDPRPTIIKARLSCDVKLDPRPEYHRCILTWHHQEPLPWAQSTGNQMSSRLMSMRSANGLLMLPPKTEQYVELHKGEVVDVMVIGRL
GABAA receptor α1 TM3-TM4 loop (Homo sapiens), sequence (P14867 334-420): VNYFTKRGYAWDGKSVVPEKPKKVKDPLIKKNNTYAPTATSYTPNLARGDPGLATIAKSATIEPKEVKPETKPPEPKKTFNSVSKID

gephyrin (from UniProt Q03555)
Kd [1]: 17 µM | Kd [2]: 5.3 µM
